Measured values: patent US20200087373A1 (UNIVERSITY OF COPENHAGEN, published 2020)
Ends that are not written are not given here. * marks the point of attachment. Stearoyl = CCCCCCCCCCCCCCCCCC(=O)*; Palmitoyl = CCCCCCCCCCCCCCCC(=O)*; Myristoyl = CCCCCCCCCCCCCC(=O)*; Lauroyl = CCCCCCCCCCCC(=O)*

T1: human GIP receptor (human, UniProt P48546 22-466)
T1 construct: whole, on cells; also called hGIPR
T1 sequence (looked up): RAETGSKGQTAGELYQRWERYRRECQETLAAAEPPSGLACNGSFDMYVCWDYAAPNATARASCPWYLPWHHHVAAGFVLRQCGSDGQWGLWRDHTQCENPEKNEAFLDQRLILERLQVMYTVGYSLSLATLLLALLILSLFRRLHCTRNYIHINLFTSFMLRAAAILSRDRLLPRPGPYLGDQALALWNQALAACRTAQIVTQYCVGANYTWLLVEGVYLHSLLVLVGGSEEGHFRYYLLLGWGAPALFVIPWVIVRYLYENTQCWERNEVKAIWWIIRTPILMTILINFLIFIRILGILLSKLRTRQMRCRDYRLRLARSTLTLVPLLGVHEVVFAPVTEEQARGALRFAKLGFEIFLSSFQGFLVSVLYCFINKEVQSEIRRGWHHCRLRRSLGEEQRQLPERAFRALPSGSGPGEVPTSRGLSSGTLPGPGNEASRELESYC

B1: AT105 [hGIP(3-30)NH2-C16/16] (peptide)
peptide: EGTFISDYSIAMDK(Palmitoyl)IHQQDFVNWLLAQK-NH2
B2: AT115 [hGIP(3-30)NH2-C18/30] (peptide)
peptide: EGTFISDYSIAMDKIHQQDFVNWLLAQK(Stearoyl)-NH2
B3: AT106 [hGIP(3-30)NH2-C16/30] (peptide)
peptide: EGTFISDYSIAMDKIHQQDFVNWLLAQK(Palmitoyl)-NH2
B4: AT148 [hGIP(3-30)NH2-C12/3] (peptide)
peptide: Lauroyl-EGTFISDYSIAMDKIHQQDFVNWLLAQK-NH2
notes: printed with the same formula as AT101 but a different ID and different values
B5: AT112 [hGIP(3-30)NH2-C14/30] (peptide)
peptide: EGTFISDYSIAMDKIHQQDFVNWLLAQK(Myristoyl)-NH2
B6: AT160 [hGIP(3-30)NH2[H18K]-C18/18] (peptide)
peptide: EGTFISDYSIAMDKIK(Stearoyl)QQDFVNWLLAQK-NH2
modifications: N-terminus assumed
SMILES: CCCCCCCCCCCCCCCCCC(=O)NCCCC[C@H](NC(=O)[C@@H](NC(=O)[C@H](CCCCN)NC(=O)[C@H](CC(=O)O)NC(=O)[C@H](CCSC)NC(=O)[C@H](C)NC(=O)[C@@H](NC(=O)[C@H](CO)NC(=O)[C@H](Cc1ccc(O)cc1)NC(=O)[C@H](CC(=O)O)NC(=O)[C@H](CO)NC(=O)[C@@H](NC(=O)[C@H](Cc1ccccc1)NC(=O)[C@@H](NC(=O)CNC(=O)[C@@H](N)CCC(=O)O)[C@@H](C)O)[C@@H](C)CC)[C@@H](C)CC)[C@@H](C)CC)C(=O)N[C@@H](CCC(N)=O)C(=O)N[C@@H](CCC(N)=O)C(=O)N[C@@H](CC(=O)O)C(=O)N[C@@H](Cc1ccccc1)C(=O)N[C@H](C(=O)N[C@@H](CC(N)=O)C(=O)N[C@@H](Cc1c[nH]c2ccccc12)C(=O)N[C@@H](CC(C)C)C(=O)N[C@@H](CC(C)C)C(=O)N[C@@H](C)C(=O)N[C@@H](CCC(N)=O)C(=O)N[C@@H](CCCCN)C(N)=O)C(C)C
B7: AT163 [hGIP(3-30)NH2[H18K]-C16/16] (peptide)
peptide: EGTFISDYSIAMDK(Palmitoyl)IKQQDFVNWLLAQK-NH2
modifications: N-terminus assumed
SMILES: CCCCCCCCCCCCCCCC(=O)NCCCC[C@H](NC(=O)[C@H](CC(=O)O)NC(=O)[C@H](CCSC)NC(=O)[C@H](C)NC(=O)[C@@H](NC(=O)[C@H](CO)NC(=O)[C@H](Cc1ccc(O)cc1)NC(=O)[C@H](CC(=O)O)NC(=O)[C@H](CO)NC(=O)[C@@H](NC(=O)[C@H](Cc1ccccc1)NC(=O)[C@@H](NC(=O)CNC(=O)[C@@H](N)CCC(=O)O)[C@@H](C)O)[C@@H](C)CC)[C@@H](C)CC)C(=O)N[C@H](C(=O)N[C@@H](CCCCN)C(=O)N[C@@H](CCC(N)=O)C(=O)N[C@@H](CCC(N)=O)C(=O)N[C@@H](CC(=O)O)C(=O)N[C@@H](Cc1ccccc1)C(=O)N[C@H](C(=O)N[C@@H](CC(N)=O)C(=O)N[C@@H](Cc1c[nH]c2ccccc12)C(=O)N[C@@H](CC(C)C)C(=O)N[C@@H](CC(C)C)C(=O)N[C@@H](C)C(=O)N[C@@H](CCC(N)=O)C(=O)N[C@@H](CCCCN)C(N)=O)C(C)C)[C@@H](C)CC
B8: AT154 [hGIP(3-30)NH2-C12/16] (peptide)
peptide: EGTFISDYSIAMDK(Lauroyl)IHQQDFVNWLLAQK-NH2
notes: printed with the same formula as AT102 but a different ID and different values
B9: AT103 [hGIP(3-30)NH2-C12/30] (peptide)
peptide: EGTFISDYSIAMDKIHQQDFVNWLLAQK(Lauroyl)-NH2
B10: AT113 [hGIP(3-30)NH2-C18/3] (peptide)
peptide: Stearoyl-EGTFISDYSIAMDKIHQQDFVNWLLAQK-NH2
B11: AT120 [hGIP(5-30)NH2-C12/30] (peptide)
peptide: TFISDYSIAMDKIHQQDFVNWLLAQK(Lauroyl)-NH2
modifications: N-terminus assumed
SMILES: CCCCCCCCCCCC(=O)NCCCC[C@H](NC(=O)[C@H](CCC(N)=O)NC(=O)[C@H](C)NC(=O)[C@H](CC(C)C)NC(=O)[C@H](CC(C)C)NC(=O)[C@H](Cc1c[nH]c2ccccc12)NC(=O)[C@H](CC(N)=O)NC(=O)[C@@H](NC(=O)[C@H](Cc1ccccc1)NC(=O)[C@H](CC(=O)O)NC(=O)[C@H](CCC(N)=O)NC(=O)[C@H](CCC(N)=O)NC(=O)[C@H](Cc1c[nH]cn1)NC(=O)[C@@H](NC(=O)[C@H](CCCCN)NC(=O)[C@H](CC(=O)O)NC(=O)[C@H](CCSC)NC(=O)[C@H](C)NC(=O)[C@@H](NC(=O)[C@H](CO)NC(=O)[C@H](Cc1ccc(O)cc1)NC(=O)[C@H](CC(=O)O)NC(=O)[C@H](CO)NC(=O)[C@@H](NC(=O)[C@H](Cc1ccccc1)NC(=O)[C@@H](N)[C@@H](C)O)[C@@H](C)CC)[C@@H](C)CC)[C@@H](C)CC)C(C)C)C(N)=O
B12: AT126 [hGIP(5-30)NH2-C16/30] (peptide)
peptide: TFISDYSIAMDKIHQQDFVNWLLAQK(Palmitoyl)-NH2
modifications: N-terminus assumed
SMILES: CCCCCCCCCCCCCCCC(=O)NCCCC[C@H](NC(=O)[C@H](CCC(N)=O)NC(=O)[C@H](C)NC(=O)[C@H](CC(C)C)NC(=O)[C@H](CC(C)C)NC(=O)[C@H](Cc1c[nH]c2ccccc12)NC(=O)[C@H](CC(N)=O)NC(=O)[C@@H](NC(=O)[C@H](Cc1ccccc1)NC(=O)[C@H](CC(=O)O)NC(=O)[C@H](CCC(N)=O)NC(=O)[C@H](CCC(N)=O)NC(=O)[C@H](Cc1c[nH]cn1)NC(=O)[C@@H](NC(=O)[C@H](CCCCN)NC(=O)[C@H](CC(=O)O)NC(=O)[C@H](CCSC)NC(=O)[C@H](C)NC(=O)[C@@H](NC(=O)[C@H](CO)NC(=O)[C@H](Cc1ccc(O)cc1)NC(=O)[C@H](CC(=O)O)NC(=O)[C@H](CO)NC(=O)[C@@H](NC(=O)[C@H](Cc1ccccc1)NC(=O)[C@@H](N)[C@@H](C)O)[C@@H](C)CC)[C@@H](C)CC)[C@@H](C)CC)C(C)C)C(N)=O
B13: AT104 [hGIP(3-30)NH2-C16/3] (peptide)
peptide: Palmitoyl-EGTFISDYSIAMDKIHQQDFVNWLLAQK-NH2
B14: AT128 [hGIP(5-30)NH2-C18/16] (peptide)
peptide: TFISDYSIAMDK(C18 fatty acyl)IHQQDFVNWLLAQK-NH2
B15: AT123 [hGIP(5-30)NH2-C14/30] (peptide)
peptide: TFISDYSIAMDKIHQQDFVNWLLAQK(Myristoyl)-NH2
modifications: N-terminus assumed
SMILES: CCCCCCCCCCCCCC(=O)NCCCC[C@H](NC(=O)[C@H](CCC(N)=O)NC(=O)[C@H](C)NC(=O)[C@H](CC(C)C)NC(=O)[C@H](CC(C)C)NC(=O)[C@H](Cc1c[nH]c2ccccc12)NC(=O)[C@H](CC(N)=O)NC(=O)[C@@H](NC(=O)[C@H](Cc1ccccc1)NC(=O)[C@H](CC(=O)O)NC(=O)[C@H](CCC(N)=O)NC(=O)[C@H](CCC(N)=O)NC(=O)[C@H](Cc1c[nH]cn1)NC(=O)[C@@H](NC(=O)[C@H](CCCCN)NC(=O)[C@H](CC(=O)O)NC(=O)[C@H](CCSC)NC(=O)[C@H](C)NC(=O)[C@@H](NC(=O)[C@H](CO)NC(=O)[C@H](Cc1ccc(O)cc1)NC(=O)[C@H](CC(=O)O)NC(=O)[C@H](CO)NC(=O)[C@@H](NC(=O)[C@H](Cc1ccccc1)NC(=O)[C@@H](N)[C@@H](C)O)[C@@H](C)CC)[C@@H](C)CC)[C@@H](C)CC)C(C)C)C(N)=O
B16: AT125 [hGIP(5-30)NH2-C16/16] (peptide)
peptide: TFISDYSIAMDK(Palmitoyl)IHQQDFVNWLLAQK-NH2
modifications: N-terminus assumed
SMILES: CCCCCCCCCCCCCCCC(=O)NCCCC[C@H](NC(=O)[C@H](CC(=O)O)NC(=O)[C@H](CCSC)NC(=O)[C@H](C)NC(=O)[C@@H](NC(=O)[C@H](CO)NC(=O)[C@H](Cc1ccc(O)cc1)NC(=O)[C@H](CC(=O)O)NC(=O)[C@H](CO)NC(=O)[C@@H](NC(=O)[C@H](Cc1ccccc1)NC(=O)[C@@H](N)[C@@H](C)O)[C@@H](C)CC)[C@@H](C)CC)C(=O)N[C@H](C(=O)N[C@@H](Cc1c[nH]cn1)C(=O)N[C@@H](CCC(N)=O)C(=O)N[C@@H](CCC(N)=O)C(=O)N[C@@H](CC(=O)O)C(=O)N[C@@H](Cc1ccccc1)C(=O)N[C@H](C(=O)N[C@@H](CC(N)=O)C(=O)N[C@@H](Cc1c[nH]c2ccccc12)C(=O)N[C@@H](CC(C)C)C(=O)N[C@@H](CC(C)C)C(=O)N[C@@H](C)C(=O)N[C@@H](CCC(N)=O)C(=O)N[C@@H](CCCCN)C(N)=O)C(C)C)[C@@H](C)CC
B17: AT110 [hGIP(3-30)NH2-C14/3] (peptide)
peptide: Myristoyl-EGTFISDYSIAMDKIHQQDFVNWLLAQK-NH2
B18: AT102 [hGIP(3-30)NH2-C12/16] (peptide)
peptide: EGTFISDYSIAMDK(Lauroyl)IHQQDFVNWLLAQK-NH2

Molecular target: T1, human GIP receptor
Assay: 125I-hGIP competition binding, COS-7 cells expressing hGIPR;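 note: nonspecific binding taken as radioligand bound by untransfected cells, binding buffer with or without 2% HSA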
Experimental: After incubation, the cells were washed twice in ice-cold binding buffer (+/−2% HSA) and lysed using 200 mM NaOH with 1% SDS for 30 min. Nonspecific binding was determined as the binding of radioactive ligand to untransfected cells.

Row | Binder | IC50 [nM] | log IC50 [log M]
1 | B1 | 522 | -6.3
2 | B2 | 1520 | -5.8
3 | B3 | 1410 | -5.9
4 | B4 | 24 | -8
5 | B5 | 451 | -6.3
6 | B6 | 49 | –
7 | B7 | 205 | –
8 | B8 | 27 | -8
9 | B9 | 4710 | -5.3
10 | B10 | 41400 | -4.4
11 | B11 | 1090 | -6
12 | B12 | 7790 | -5.1
13 | B13 | 75 | -7.1
14 | B14 | 466 | -6.3
15 | B15 | 674 | -6.2
16 | B16 | 714 | -6.1
17 | B17 | 55.5 | -7.3
18 | B18 | 59.1 | -7.2
